Results reported in patent publication US11311626B2, “Plasmin-cleavable anti-insoluble fibrin antibody-drug conjugate” (NATIONAL CANCER CENTER JAPAN, priority 2017, dated 2022).

B1: 99-5: mAb (mouse IgG1) from clone 99-5, mouse immunized with peptide of SEQ ID NO: 26; insoluble fibrin-specific antibody; VH SEQ ID NO: 4, VL SEQ ID NO: 8 (antibody, V domains shown)
VH: MDWLWNLLFLMAAAQSIQAQIQLVQSGPELKKPGETVKISCKASGYTFTNYGMNWVKQAPGKGLKWMGWINTKIGEPTYAEEFKGRFAFSLETSASTAYLQINNLKNEDTATYFCARLLDYWGQGTTLTVSSAKTTPPSV
VL: METDTLLLWVLLLWVPGSTGDIVLTQSPASLAVSLGQRATISCRASESVDSYGNSFMHWYQQKPGQPPKLLIYRASNLESGIPARFSGSGSRTDFTLTINPVEADDVATYYCQQSNEDPRTFGGGTKLEIKRADAAPTVS
B2: 1101: mAb (mouse IgG1) from clone 1101, mouse immunized with peptide of SEQ ID NO: 27; insoluble fibrin-specific antibody; VH SEQ ID NO: 12, VL SEQ ID NO: 16 (antibody, V domains shown)
VH: MECNWILPFILSVISGVYSEVQLQQSGTVLARPGASVKMSCKASGFSFTSYWMHWVKQRPGQGLEWIGAIYPGNSDTRNNQKFKGKAKLTAVTSANTAYMELSSLTNEDSAVYYCTRKAHYGNYGFAYWGQGTLVTVSAA
VL: MSGHSRNMKFPSQLLLFLLFRITGIICDIQMTQSSSYLSVSLGGRVTITCKASDHINNWLAWYQQKPGNAPRLLISGATSLETGVPSRFSGSGSGKDYTLSITSLQTEDVATYYCQQYWSTPLTFGAGTKLELKRADAAP

What was measured:
[1] = biological target: peptide of the epitope site of 102-10 (Homo sapiens, UniProt P02675); assay: Verification of affinity by SPR (Biacore T200, multi cycle kinetics); format: binding; conditions: for Dissociation rate constant kd: immobilized epitope peptide of 102-10; for Binding rate constant ka: immobilized epitope peptide of 102-10, antibody 48.875-1500 nM; for Kd: immobilized epitope peptide of 102-10, reference for relative affinity
Method: When an antigen is insoluble, although SPR is not suitable for verifying the affinity of the antigen, measurement by SPR was performed as reference for comparing relative affinity levels between antibodies.
The affinity of an antibody to insoluble fibrin was calculated based on analysis by surface plasmon resonance (SPR) using Biacore T200 (GE Healthcare) to evaluate the intermolecular interaction of the antibody. […] The immobilization was performed using an amine coupling kit (BR-1000-50, GE Healthcare) and setting the […] to 90 RU. Subsequently, an antigen-antibody reaction was performed using an antibody diluted to […], 93.75, 187.5, 375, 750, and 1500 nM with 1× HBS-N buffer by a multi cycle kinetics method under conditions shown in Table 1. After the measurement, analysis using BIA evaluation (GE Healthcare) was performed to determine the KD value, kd value, and ka value.

[2] = tested on: triple mutant mouse-derived pancreatic cancer cell line; conditions: Alexa 647-labeled antibody, 300 μg per mouse, tail vein, imaging 1 h to day 7, FIG. 2
Method: Accordingly, in vivo imaging was performed using the cell line. […] The pancreatic cancer cell line was cultured in 500 mL of a RPMI 1640 (FUJIFILM Wako Pure Chemical Corporation) medium supplemented with 100 mL of inactivated fetal bovine serum (FBS, Gibco) and 10 mL of 100 units/mL Penicillin, 100 μg/mL Streptomycin, and 250 ng/mL Amphotericin B (FUJIFILM Wako Pure Chemical Corporation). The culture supernatant was then removed. The cells were washed with PBS (Invitrogen), and 2 mL of Trypsin-EDTA [0.25% (w/v) trypsin-1.0 mmol/L ethylenediaminetetraacetic acid-4Na Solution with Phenol Red, FUJIFILM Wako Pure Chemical Corporation] was added thereto. The cells were detached by pipetting and placed in a 15-mL tube (Corning Incorporated), followed by centrifugation with a centrifuge (Universal centrifuge 5800, KUBOTA Corporation Co., Ltd.) at 270×g for 3 minutes at 4° C. The supernatant was removed, and the precipitate was resuspended in 10 mL of PBS, followed by centrifugation at 270×g for 3 minutes at 4° C. After repeating this procedure three times, the concentration was adjusted to 2×10^6 cells/50 μL with PBS, and the cell solution was subcutaneously injected to 5-week old BALB/c Slc nu/nu mice (Japan SLC, Inc.) at 50 μL per mouse from the left foot base. […] The control used was InVivoMAb Mouse IgG1 Isotype control (Bio X Cell). […]

| Molecule | Dissociation rate constant kd [1] [s⁻¹] | Binding rate constant ka [1] [M⁻¹ s⁻¹] | Kd [1] [nM] | Accumulation of antibody to cancer [2] |
| --- | --- | --- | --- | --- |
| B1 | 0.000585 | 18000 | 32.6 | high |
| B2 | 0.00325 | 93700 | 66.8 | high |
